The assay addresses rat collagen type I (rat) (UniProt P02454). Briefly: ELISA; rat collagen type I coated on a 96-well plate; rPnxIIIA variants applied at 10 μg/ml; detected with anti-6x Histidine tag monoclonal antibody, read as A620. A general note: In an ELISA, binding on a coated surface is turned into a signal by an enzyme label.
Sequence of UniProt P02454 (P02454 152-1207, chain 1 of 2): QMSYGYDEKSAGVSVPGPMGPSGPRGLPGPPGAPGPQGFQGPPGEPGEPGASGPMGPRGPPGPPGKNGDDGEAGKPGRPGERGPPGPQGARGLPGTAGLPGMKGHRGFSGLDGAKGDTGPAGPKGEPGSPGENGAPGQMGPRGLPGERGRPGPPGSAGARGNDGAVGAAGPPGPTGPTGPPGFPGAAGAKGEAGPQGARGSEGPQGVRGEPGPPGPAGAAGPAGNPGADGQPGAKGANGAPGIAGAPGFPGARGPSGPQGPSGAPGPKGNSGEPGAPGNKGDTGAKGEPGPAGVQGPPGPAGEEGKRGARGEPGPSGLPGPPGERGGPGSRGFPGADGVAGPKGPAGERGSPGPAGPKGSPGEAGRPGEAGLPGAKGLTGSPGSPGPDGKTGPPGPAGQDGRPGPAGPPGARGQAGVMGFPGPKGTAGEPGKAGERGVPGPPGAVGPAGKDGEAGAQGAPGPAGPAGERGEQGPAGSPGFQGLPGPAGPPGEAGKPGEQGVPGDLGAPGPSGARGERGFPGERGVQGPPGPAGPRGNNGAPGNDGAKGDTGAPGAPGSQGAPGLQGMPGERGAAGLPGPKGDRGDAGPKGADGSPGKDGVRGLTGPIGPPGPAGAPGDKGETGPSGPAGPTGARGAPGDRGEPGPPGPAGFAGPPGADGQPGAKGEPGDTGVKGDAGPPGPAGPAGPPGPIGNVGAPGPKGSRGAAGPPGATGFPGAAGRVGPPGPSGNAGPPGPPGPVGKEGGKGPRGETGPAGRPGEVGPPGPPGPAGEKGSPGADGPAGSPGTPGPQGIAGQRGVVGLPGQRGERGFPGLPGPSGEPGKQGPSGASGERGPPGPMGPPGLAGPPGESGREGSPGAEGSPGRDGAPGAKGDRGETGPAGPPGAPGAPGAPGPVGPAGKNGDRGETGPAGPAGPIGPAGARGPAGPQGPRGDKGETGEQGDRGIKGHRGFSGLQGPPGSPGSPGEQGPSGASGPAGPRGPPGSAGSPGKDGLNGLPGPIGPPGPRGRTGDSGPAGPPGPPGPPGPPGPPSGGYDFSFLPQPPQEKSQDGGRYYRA
Sequence of UniProt P02454 (P02466 86-1125, chain 2 of 2, further chain): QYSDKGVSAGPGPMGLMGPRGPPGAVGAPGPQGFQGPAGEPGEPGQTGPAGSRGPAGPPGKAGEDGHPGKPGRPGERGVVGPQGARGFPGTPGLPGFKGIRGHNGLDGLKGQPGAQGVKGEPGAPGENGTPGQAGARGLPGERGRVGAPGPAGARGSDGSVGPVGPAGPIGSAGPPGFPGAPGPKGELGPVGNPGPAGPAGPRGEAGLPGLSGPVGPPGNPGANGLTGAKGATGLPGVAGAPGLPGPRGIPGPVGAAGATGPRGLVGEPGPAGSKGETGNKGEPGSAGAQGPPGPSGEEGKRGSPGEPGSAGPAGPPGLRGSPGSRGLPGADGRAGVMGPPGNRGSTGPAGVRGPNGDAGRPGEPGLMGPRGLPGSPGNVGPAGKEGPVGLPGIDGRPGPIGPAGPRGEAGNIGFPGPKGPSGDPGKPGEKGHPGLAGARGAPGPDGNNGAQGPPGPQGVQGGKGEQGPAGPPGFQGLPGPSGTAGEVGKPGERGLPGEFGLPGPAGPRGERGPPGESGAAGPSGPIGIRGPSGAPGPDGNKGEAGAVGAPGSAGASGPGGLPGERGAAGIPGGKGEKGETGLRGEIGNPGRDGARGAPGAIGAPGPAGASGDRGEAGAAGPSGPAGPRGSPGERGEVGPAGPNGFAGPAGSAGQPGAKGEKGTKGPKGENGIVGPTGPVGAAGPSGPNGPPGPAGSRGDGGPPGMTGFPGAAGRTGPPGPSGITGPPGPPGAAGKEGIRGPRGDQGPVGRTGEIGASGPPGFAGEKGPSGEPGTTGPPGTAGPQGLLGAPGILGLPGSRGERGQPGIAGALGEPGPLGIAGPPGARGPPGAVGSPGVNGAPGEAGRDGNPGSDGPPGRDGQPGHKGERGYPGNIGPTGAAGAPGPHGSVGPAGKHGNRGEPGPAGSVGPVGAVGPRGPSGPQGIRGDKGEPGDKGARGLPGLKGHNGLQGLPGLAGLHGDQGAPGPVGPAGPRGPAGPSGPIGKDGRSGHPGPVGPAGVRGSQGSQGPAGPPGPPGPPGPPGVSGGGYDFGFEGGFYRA

As to “Recombinant PnxIIIA protein (natural protein)”, the A620 at 10 μg/ml turned out to be 0.55 A620.

The values are drawn from article PMC3075217.
